No end group written: not given here.

Test [1] addresses T1, fibrinogen (Homo sapiens, UniProt P02671+P02675+P02679).
T1 construct: purchased Sigma Chemical Co. (St. Louis, Mo.) and Chromogenix AB (Molndal, Sweden)
T1 sequence (P02671 20-644 isoform P02671-2 limits assumed): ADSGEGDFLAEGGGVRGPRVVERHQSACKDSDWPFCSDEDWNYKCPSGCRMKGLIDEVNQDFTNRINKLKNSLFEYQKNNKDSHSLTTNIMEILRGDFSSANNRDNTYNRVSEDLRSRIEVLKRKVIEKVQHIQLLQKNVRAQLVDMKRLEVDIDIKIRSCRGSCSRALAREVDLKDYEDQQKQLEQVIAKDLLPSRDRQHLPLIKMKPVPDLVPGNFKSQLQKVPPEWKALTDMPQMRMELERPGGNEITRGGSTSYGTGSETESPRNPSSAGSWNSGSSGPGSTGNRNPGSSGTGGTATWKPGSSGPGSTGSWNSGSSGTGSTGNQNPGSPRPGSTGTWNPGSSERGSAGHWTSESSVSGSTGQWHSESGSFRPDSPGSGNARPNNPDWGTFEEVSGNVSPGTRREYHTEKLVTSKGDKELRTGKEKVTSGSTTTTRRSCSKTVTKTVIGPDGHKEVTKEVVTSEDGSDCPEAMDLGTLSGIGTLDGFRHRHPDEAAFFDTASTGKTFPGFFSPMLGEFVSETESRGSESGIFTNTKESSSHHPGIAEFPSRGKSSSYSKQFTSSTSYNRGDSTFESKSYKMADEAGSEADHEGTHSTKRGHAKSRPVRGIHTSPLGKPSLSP
T1 sequence (P02675 31-491): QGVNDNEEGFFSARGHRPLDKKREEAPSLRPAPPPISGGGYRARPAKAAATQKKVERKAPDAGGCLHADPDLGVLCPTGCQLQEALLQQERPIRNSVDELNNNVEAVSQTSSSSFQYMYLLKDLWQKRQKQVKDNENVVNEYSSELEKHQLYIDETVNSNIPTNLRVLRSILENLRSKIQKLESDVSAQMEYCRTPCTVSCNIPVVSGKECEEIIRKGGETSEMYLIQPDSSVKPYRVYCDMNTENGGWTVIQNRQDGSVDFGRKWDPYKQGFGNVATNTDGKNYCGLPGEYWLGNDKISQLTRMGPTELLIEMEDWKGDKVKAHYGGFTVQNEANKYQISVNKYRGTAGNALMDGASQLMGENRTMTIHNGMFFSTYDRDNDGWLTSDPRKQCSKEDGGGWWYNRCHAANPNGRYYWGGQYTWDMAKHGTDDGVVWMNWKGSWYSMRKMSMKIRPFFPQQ
T1 sequence (P02679 27-453): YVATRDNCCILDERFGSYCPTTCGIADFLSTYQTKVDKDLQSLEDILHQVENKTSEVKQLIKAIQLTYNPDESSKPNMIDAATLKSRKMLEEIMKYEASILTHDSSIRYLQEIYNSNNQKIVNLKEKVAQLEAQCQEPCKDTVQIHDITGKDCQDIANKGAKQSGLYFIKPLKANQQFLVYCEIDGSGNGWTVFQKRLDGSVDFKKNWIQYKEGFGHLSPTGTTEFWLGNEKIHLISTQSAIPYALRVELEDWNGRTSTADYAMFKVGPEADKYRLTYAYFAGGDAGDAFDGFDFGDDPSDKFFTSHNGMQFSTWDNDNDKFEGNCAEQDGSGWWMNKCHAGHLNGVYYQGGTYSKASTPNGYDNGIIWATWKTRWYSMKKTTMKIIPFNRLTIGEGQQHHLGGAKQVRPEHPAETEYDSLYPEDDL
Kind of test: Confirmatory binding assay in column chromatographic format: fibrinogen applied to peptide resins, NaCl wash and acid eluate quantified by A280. As to conditions: for 2% Acetic Acid Eluate, A280: peptide synthesized on A-Totda-Toyopearl, Table 2; for 1 M NaCl Eluate, integration of the absorbance at 280 nm / 2% Acetic Acid Eluate, integration of the absorbance at 280 nm: truncations on A-Totda-Toyopearl, Table 6. The procedure:
Confirmatory binding assays were performed in a column chromatographic format on a microbore HPLC using individual peptide sequences synthesized directly onto the Toyopearl 650M Chelate resin which had been modified with Totda followed by an alanine residue (A-Totda-Toyopearl), at a final substitution density of 0.2 mmole/g resin. […] The endpoint was a dose-dependent increase in the acid eluate in the fibrinogen contactings, and quantification was by integration of the absorbance at 280 nm (Table 2).
Peptides PLLVPL and FLLVPL, with and without an N-acetylated amino terminus, were synthesized directly onto Ala-Totda-Toyopearl at a density of approximately 0.2 mmole/g resin. The ability of these resins to bind fibrinogen was determined as above. An unblocked (free) amino terminus was required for binding fibrinogen to PLLVPL-A-Totda-Toyopearl (Table 5) (SEQ ID NO:2). Similar results were obtained in a separate experiment by using FLLVPL-A-Totda-Toyopearl (Table 5) (SEQ ID NO:1).
Truncations from the carboxyl- and amino- termini of PLLVPL and FLLVPL (SEQ ID NOS 2 and 1, respectively) synthesized directly on A-Totda-Toyopearl resin in order to identify the minimum sequence necessary for binding.

In test [2] the target is T1, fibrinogen. Description: Isothermal titration calorimetry of peptide binding to purified fibrinogen. Conditions: solution phase binding, soluble peptide; 30° C., 30 mM phosphate buffer, pH 7.0. The protocol: Isothermal titration colorimetry was performed using either purified, soluble peptides (5 mM) or peptides synthesized directly on A-Totda-Togopearl (1.4mM) and with purified fibrinogen (50 μM) by a modification of the technique of Tyler-Cross et at. (1993). All measurements were performed at 30° C. in 30 mM phosphate buffer, pH 7.0 with an Omega titration colorimeter (Microcal, Inc., Northampton, Mass.).
Solution phase binding isotherms were performed on the purified soluble peptides and purified fibrinogen by using isothermal titration calorimetry (Table 3). […] A change from P to F at the amino terminus lowered the dissociation constant over 150-fold. PLLVPL (SEQ ID NO:2) bound to approximately 3 to 4 sites per fibrinogen molecule. […] Both peptide binding reactions were endothermic as indicated by the positive enthalpy (ΔH), and were thermodynamically favorable (negative ΔG) under the conditions tested. Unusually high entropic terms indicate a conformational change may be driving the association of peptide with fibrinogen.
In general terms: Isothermal titration calorimetry measures the heat released or taken up as one component is titrated into another.

For test [3], the target named is T1, fibrinogen. Description: Characterization of binding interaction: fibrinogen (25 mg) on 5 ml FLLVPL resin column, binding and elution under varied conditions. The procedure: Peptide FLLVPL was synthesized directly on A-Totda-Toyopearl at a density of 0.2 mmole/g resin. A column of dimensions 1.0×6.4 cm (approximately 5 ml column volume) was equilibrated with either 10 mM HEPES or 10 mM sodium acetate, pH 6.8, 1.0 mM EGTA and either 0.1, 0.2 or 1.0M NaCl. Fibrinogen (25 mg; 5.0 ml) was applied to the column in 10 mM sodium acetate, pH 6.8 and 1 mM EGTA containing 0.1M NaCl.
Fibrinogen (25 mg; 5.0 ml) was applied to the column in 10 mM sodium acetate, pH 6.8 and 1 mM EGTA containing 0.1M NaCl.
No elution of fibrinogen (applied to the column in 10 mM sodium acetate, pH 6.8 and 1 mM EGTA containing 0.1M NaCl) was observed by using the hydrophilic compound, polyethylene glycol (10%). Only approximately 8 percent of the applied fibrinogen was eluted by increasing the pH to 10 with 10 mM sodium borate. Further increases in pH with a linear gradient (pH 6.8 to 12.0) released approximately 25 percent of the fibrinogen.
In order to assess further the contribution of hydrophobic interactions to the binding mechanism of FLLVPL (SEQ ID NO.:1) to fibrinogen, fibrinogen (25 mg; 5.0 ml) was applied to the peptide under high salt conditions favorable to hydrophobic bonding and release under low ionic strength. The peptide resin was equilibrated with 10 mM sodium acetate, 1.0M NaCl, and 1.0 mM EGTA, pH 6.8. Five milliliters of a solution of fibrinogen (5 mg/ml) in the same buffer was applied to the column, and washed with two column volumes of the same buffer. The resin was then contacted with 10 column volumes of 10 mM sodium acetate, pH 4.0 followed by 2% acetic acid (4 column volumes). […] Low ionic strength and low pH (4.0) released approximately 78.3 percent of the protein. However, only 5% of the applied protein was eluted in a second experiment when the 10 mM sodium acetate, pH 4.0 solution contained 0.1M NaCl. Acid treatment released the remainder of the recovered protein in both experiments.

For the substance “ALLVPL: peptide sequence ALLVPL synthesized on A-Totda-Toyopearl (not fully specified (C-terminus))”, the entries for the “2% Acetic Acid Eluate, A280” value in the test with fibrinogen [1] (250 μg fibrinogen applied), with fibrinogen [1] (500 μg fibrinogen applied) and with fibrinogen [1] (1000 μg fibrinogen applied) were 0.02, 0.09 and 0.12, respectively.
On fibrinogen [2], “PLLVPL-NH2 [PLLVPL, Pro-Leu-Leu-Val-Pro-Leu]” had a Kd of 688 µM.
“AALVPL: peptide sequence AALVPL synthesized on A-Totda-Toyopearl (not fully specified (C-terminus))”: the entries for the “2% Acetic Acid Eluate, A280” value with fibrinogen [1] (250 μg fibrinogen applied), with fibrinogen [1] (500 μg fibrinogen applied) and with fibrinogen [1] (1000 μg fibrinogen applied) were 0.02, 0.09 and 0.12, respectively.
“FLLVPL-NH2 [FLLVPL, Phe-Leu-Leu-Val-Pro-Leu]” yielded an applied protein eluted on fibrinogen [3] (10 mM sodium acetate, pH 4.0 containing 0.1M NaCl (second experiment)) of 5%. Also, at fibrinogen [3] (applied in 10 mM sodium acetate, 1.0M NaCl, 1.0 mM EGTA, pH 6.8), the “applied protein (A280) not interacting with the column, recovered in flow through and wash” value is listed as “Approximately 7.2%”. The “release of the applied protein” value was 14% at fibrinogen [3] (elution with ionic detergent (2% sodium cholate)) and 40% on fibrinogen [3] (elution with nonionic detergent (5% Tween-20) in the binding buffer). Besides, at fibrinogen [3] (linear pH gradient (pH 6.8 to 12.0)), the fibrinogen released entry was “approximately 25%”. Besides, the protein released result at fibrinogen [3] (low ionic strength, 10 mM sodium acetate, pH 4.0, after high salt application) was “approximately 78.3%”. Besides, on fibrinogen [3] (pH 6.8, 1.0 mM EGTA, column equilibrated with 0.1, 0.2 or 1.0M NaCl), the “applied absorbance (280 nm) that failed to bind the column” value lay in the range of 5 to 8%. Moreover, on fibrinogen [3] (pH gradient from 6.8 to 4.0, release at pH 4.2), the release of fibrinogen result is recorded as “approximately 66%”. Also, on fibrinogen [3] (pH increased to 10 with 10 mM sodium borate), the applied fibrinogen eluted result is given as “approximately 8%”. The substance further showed a Kd on fibrinogen [2] of 4.5 µM.
“Phe-Leu-Leu-Val (FLLV; printed: Phe-Leu-Leu-Val) [truncation of FLLVPL on A-Totda-Toyopearl resin]”: the “1 M NaCl Eluate, integration of the absorbance at 280 nm” value with fibrinogen [1] (250 μg fibrinogen applied) is reported as 0.00 ×10^6; with fibrinogen [1] (500 μg fibrinogen applied), 0.00 ×10^6; in the test with fibrinogen [1] (1000 μg fibrinogen applied), 0.50 ×10^6. The “2% Acetic Acid Eluate, integration of the absorbance at 280 nm” value with fibrinogen [1] (250 μg fibrinogen applied) is given as 1.51 ×10^6; with fibrinogen [1] (500 μg fibrinogen applied), 1.79 ×10^6; in the test with fibrinogen [1] (1000 μg fibrinogen applied), 4.99 ×10^6.
As to “PALVPL: peptide sequence PALVPL synthesized on A-Totda-Toyopearl (not fully specified (C-terminus))”, the “2% Acetic Acid Eluate, A280” value is on record as 0.01 with fibrinogen [1] (250 μg fibrinogen applied), 0.06 with fibrinogen [1] (500 μg fibrinogen applied) and 0.13 with fibrinogen [1] (1000 μg fibrinogen applied).
In the same order, the values of “Phe-Ala-Leu-Val- Pro-Leu (FALVPL; not fully specified (C-terminus); printed as Phe-Ala-Leu-Val-Pro-Leu)” are 0.72, 1.35 and 2.78.

Usually Kd stands for the equilibrium constant for the complex coming apart. Low readings indicate a tighter complex, high ones a looser complex.

The values above are taken from patent US5723579A, “Fibrinogen binding peptides” (Bayer Corporation, priority 1996, dated 1998).
